Laboratory results: PMC6430559, “Antigenicity and Immunogenicity of Differentially Glycosylated Hepatitis C Virus E2 Envelope Proteins Expressed in Mammalian and Insect Cells” (Journal of Virology, 2019)

Key:
Assay in all cases: BLI; Octet RED96; His6-tagged sE2 (5 ug/ml, 600 s) loaded on Ni2+-NTA biosensors and stabilised with EDC/NHS, quenched with 1 M ethanolamine pH 8.0; association 300 s, dissociation 300 s; 2-fold dilution series of CD81 or HMAb (IgG format); steady-state analysis by the legend, global fit by the methods; values may reflect bivalent IgG binding
[1] = target: Sf9-derived soluble HCV E2 glycoprotein (sE2), genotype 1a H77c, residues 384 to 661, monomeric (hepatitis C virus genotype 1a, strain H77c) (UniProt P27958)
Sequence of Sf9-derived soluble HCV E2 glycoprotein (sE2), genotype 1a H77c, residues 384 to 661, monomeric (hepatitis C virus genotype 1a, strain H77c) (P27958 384-661): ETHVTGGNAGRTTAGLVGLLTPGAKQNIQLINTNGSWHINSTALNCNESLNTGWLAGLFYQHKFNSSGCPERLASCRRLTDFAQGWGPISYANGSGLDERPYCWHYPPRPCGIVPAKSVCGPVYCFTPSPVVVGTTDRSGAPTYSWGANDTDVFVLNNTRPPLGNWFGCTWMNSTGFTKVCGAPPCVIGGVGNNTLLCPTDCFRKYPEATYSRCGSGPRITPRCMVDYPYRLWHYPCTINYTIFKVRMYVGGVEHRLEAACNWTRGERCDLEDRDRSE

[2] = target: HEK293-derived soluble HCV E2 glycoprotein (sE2), genotype 1a H77c, residues 384 to 661, monomeric (hepatitis C virus genotype 1a, strain H77c) (UniProt P27958)
Sequence of HEK293-derived soluble HCV E2 glycoprotein (sE2), genotype 1a H77c, residues 384 to 661, monomeric (hepatitis C virus genotype 1a, strain H77c) (P27958 384-661): as above

[3] = target: T1, Sf9-derived soluble HCV E2 glycoprotein (sE2), genotype 1a H77c, residues 384 to 661, monomeric (hepatitis C virus genotype 1a, strain …, UniProt P27958 384-661, N-glycans at positions 417, 423, 430, 448, 476, 532, 540, 556, 576, 623 and 645; mainly paucimannose-type glycans, with or without one or two core fucose residues); conditions: both partners purified
T1 construct: HCV envelope glycoprotein E2 lacking the C-terminal transmembrane anchor, amino acids 384 to 661 of the strain 1a HCV H77c polyprotein; also called Sf9-derived sE2; Sf9 sE2; source: Sf9 cells infected with recombinant baculovirus, secreted; purified from culture supernatant (HisTrap Ni2+-NTA, Superdex 200; monomer peak); not shown: His6, C-terminal, kept
T1 sequence (P27958 384-661): as above

[4] = target: T2, HEK293-derived soluble HCV E2 glycoprotein (sE2), genotype 1a H77c, residues 384 to 661, monomeric (hepatitis C virus genotype 1a, strain …, UniProt P27958 384-661, N-glycans at positions 417, 423, 430, 448, 476, 532, 540, 556, 576, 623 and 645; mostly complex- and high-mannose-type glycans); conditions: both partners purified
T2 construct: HCV envelope glycoprotein E2 lacking the C-terminal transmembrane anchor, amino acids 384 to 661 of the strain 1a HCV H77c polyprotein; also called HEK293-derived sE2; HEK293 sE2; source: FreeStyle 293-F (HEK293-F) cells, transfected, secreted; purified from culture supernatant (HisTrap Ni2+-NTA, Superdex 200; monomer peak); not shown: His6, C-terminal, kept
T2 sequence (P27958 384-661): as above

Binder	Kd [1]	Kd [2]	Kd [3]	Kd [4]
Human monoclonal antibody (HMAb) HC33.1, specific for antigenic domain E of HCV E2 (antibody, V domains shown) VH: EVQLVESGGGLVQPGGSLRLSCVASGLTFTNFAVSWVRQAPGKGLEWVSAISSSDGSTYYSDSVKGRFTISRDSSMNTLYLQMDSLRVEDTAVYFCARAVVSSDITYTYWSKYFDYWGQGTLVTVSS VL: QSVVTQPPSVSAAPGQKVTISCSGGSFNIGNNYVSWYQQLPGTAPKLLIYDNDNRPSGIPDRFSGSKSGTSATLDITGLQTGDEADYYCGTWDSSLNVVVFGGGTKLTVL	47 nM	50 nM	–	–
Human CD81 large extracellular loop (CD81-LEL; CD81 residues 113 to 201) (domain or fragment, UniProt P60033 113-201, looked up, human CD81 large extracellular loop, residues 113 to 201; Cloned into the vector pHLsec (Addgene plasmid #99845 is the vector); The C-terminal His6 tag was stripped with carboxypeptidase A-agarose before biolayer interferometry; also called recombinant CD81; source: FreeStyle HEK293-F cells, transfected, secreted; purified from culture supernatant (HiTrap chelating HP Ni2+-NTA, Superdex 75); not …) FVNKDQIAKDVKQFYDQALQQAVVDDDANNAKAVVKTFHETLDCCGSSTLTALTTSVLKNNLCPSGSNIISNLFKEDCHQKIDDLFSGK	–	–	440 ± 38 nM	510 ± 22 nM
